The text below walks through data of patent publication US20140315986.

The target of data set [1] is IL-6 (mature human interleukin-6) (Homo sapiens) (UniProt P05231). Description: filter.
Data set [2] has the same target. Description: cell_activity. To be noted: 2'-OMe at C3,G6,A16,A19,C20,C28, STAT3 gene reporter assay. In general terms: Reporter assays use an easily measured gene product as a stand-in for the process of interest.
The target in data set [3] is T1, IL-6 (Macaca fascicularis) (UniProt P79341).
T1 sequence: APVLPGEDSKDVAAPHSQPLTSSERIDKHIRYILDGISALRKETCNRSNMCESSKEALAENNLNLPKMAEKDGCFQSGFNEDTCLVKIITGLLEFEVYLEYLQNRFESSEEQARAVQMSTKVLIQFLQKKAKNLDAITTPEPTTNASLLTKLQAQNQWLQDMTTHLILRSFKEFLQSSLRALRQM
Description: filter. To be noted: Bn-dU at 7,8,14,15,22,23,27,30; PE-dU at 9; Nap-dU at 12; 2'-OMe at C3,G6,A16,A19,C20,C28.

Data set [4] deals with T1, IL-6 (Macaca fascicularis). Description: cell_activity. To be noted: Bn-dU at 7,8,14,15,22,23,27,30; PE-dU at 9; Nap-dU at 12; 2'-OMe at C3,G6,A16,A19,C20,C28; gene reporter assay.

As a reminder, the Kd is the equilibrium constant for the complex coming apart. Consider “GATGTGAGTGTGTGACGAGGGGGUUAUGUAGCGAGUGCGUAAGGCGGUGGGCGAGGGAUCACAGAGAAGAAACAAGACC [2574-49]”, for which the dissociation constant (Kd) in data set [1] (all U are Nap-dU (5-naphthylmethylcarboxamide-dU), SB17T-0.002 (125 mM NaCl, 5 mM KCl, 5 mM MgCl2), 37 C, ZORBAX capture) was 2 nM.

In data set [1] (all U are Bn-dU (5-benzylcarboxamide-dU), SB17T-0.002 (125 mM NaCl, 5 mM KCl, 5 mM MgCl2), 37 C, ZORBAX capture), “GATGTGAGTGTGTGACGAGUGGGCAGGUUUGGUAUUAACACGUUAAGUCGUGGGGUCGCACAGAGAAGAAACAAGACC [2573-20]” gave a Kd of 3 nM.

Take “GGCAGGUUUGGUAUUAACACGUUAAGUCGUGG [2573-20_15]”: the Kd in data set [1] (all U are Bn-dU) amounted to 1 nM.

In general, IC50 refers to the concentration needed to halve the response being measured. The low end stands for greater potency, the high end for weaker potency. “GGCAGGUUUGGUAUUAACACGUUAAGUCGUGG [2573-20_135]” showed an IC50 in data set [2] (all U are Bn-dU) of 0.24 nM.

Take “GGCAGGUUUGGUAUUAACACGUUAAGUCGUGG [2573-20_136]”: the Kd in data set [3] was 2 nM. For the same sequence, the IC50 came out at 0.5 nM in data set [2] (Bn-dU at 7,8,14,15,22,23,27,30, PE-dU at 9, Nap-dU at 12) and 9.7 nM in data set [4].

As to “GGCAGGUUUGGUAUUAACACGUUAAGUCGUGGG [2573-20_14]”, the Kd in data set [1] (all U are Bn-dU) turned out to be 2.8 nM.

In data set [1] (all U are Bn-dU), “GGCAGGUUUGGUAUUAACACGUUAAGUCGUGGGG [2573-20_13]” came in with a Kd of 1.9 nM.

As for “GGCAGGUUUGGUAUUAACACGUUAAGUCGUGGGGU [2573-20_12]”, in data set [1] (all U are Bn-dU), the Kd amounted to 1.4 nM.

As to “GGCAGGUUUGGUAUUAACACGUUAAGUCGUGGGGUC [2573-20_3]”, the Kd in data set [1] (all U are Bn-dU) turned out to be 1.5 nM.

Consider “GGCAGGUUUGGUGUGG [2573-20_324 Bn7 to MBn variant]”, for which the Kd in data set [1] (G-G-C1-A-G-G1-MBn-Bn-Pe-G-G-Nap-C3-G-Bn-G-G (1=2'-OMe, C3=spacer), 100-fold improvement over parent stated) amounted to 1 nM.

On to “GGCAGGUUUGGUGUGG [2573-20_324 G-quartet fragment]”, for which the Kd in data set [1] (G-G-C1-A-G-G1-Bn-Bn-Pe-G-G-Nap-C3-G-Bn-G-G (1=2'-OMe, C3=spacer), p263 states approximately 200 nM) came to 270 nM.

“GGGGUUAUGUAGCGAGUGCGUAAGGCGGUG [2574-49_14]”: the Kd in data set [1] (all U are Nap-dU) came to 0.7 nM.

“GGGGUUAUGUAGCGAGUGCGUAAGGCGGUGG [2574-49_13]”: the Kd in data set [1] (all U are Nap-dU) was determined as 1.1 nM.

“GGGGUUAUGUAGCGAGUGCGUAAGGCGGUGGG [2574-49_12]” yielded a Kd in data set [1] (all U are Nap-dU) of 1.1 nM.

For “GGGGUUAUGUAGCGAGUGCGUAAGGCGGUGGGC [2574-49_11]”, the Kd in data set [1] (all U are Nap-dU) was found to be 1.5 nM.

Regarding “GGGGUUAUGUAGCGAGUGCGUAAGGCGGUGGGCG [2574-49_10]”, the Kd in data set [1] (all U are Nap-dU) was found to be 1.9 nM.

Sequence “GGGGUUAUGUAGCGAGUGCGUAAGGCGGUGGGCGA [2574-49_9]” gave a Kd in data set [1] (all U are Nap-dU) of 1.8 nM.

In data set [1] (all U are Nap-dU), “GGGGUUAUGUAGCGAGUGCGUAAGGCGGUGGGCGAG [2574-49_8]” displayed a Kd of 1.2 nM.

Consider “GGGGUUAUGUAGCGAGUGCGUAAGGCGGUGGGCGAGG [2574-49_7]”, for which the Kd in data set [1] (all U are Nap-dU) is 2.6 nM.

In data set [1] (all U are Nap-dU), “GGGGUUAUGUAGCGAGUGCGUAAGGCGGUGGGCGAGGG [2574-49_6]” displayed a Kd of 3.5 nM.

For the sequence “GGGGUUAUGUAGCGAGUGCGUAAGGCGGUGGGCGAGGGA [2574-49_3]”, in data set [1] (all U are Nap-dU), the Kd stood at 4.1 nM.

As to “GGGUUAUGUAGCGAGUGCGUAAGGCGGUGGGCGAGGGA [2574-49_15]”, the Kd in data set [1] (all U are Nap-dU) was found to be 2.1 nM.

On to “GGUUAUGUAGCGAGUGCGUAAGGCGGUGGGCGAGGGA [2574-49_16]”, for which the Kd in data set [1] (all U are Nap-dU) worked out at 3.9 nM.

In data set [1] (all U are Nap-dU), “GUUAUGUAGCGAGUGCGUAAGGCGGUGGGCGAGGGA [2574-49_17]” displayed a Kd of 17 nM.

“UUAUGUAGCGAGUGCGUAAGGCGGUGGGCGAGGGA [2574-49_18]” came in with a Kd in data set [1] (all U are Nap-dU) of 19 nM.
